According to the DeepSol protein solubility set:

Experiment: soluble on expression in E. coli; label from the status in PepcDB or PDB records

MGSDKIHHHHHHMKREEIADLMAFVVVAEERSFTRAAARLSMAQSALSQIVRRIEERLGLRLLTRTTRSVVPTEAGEHLLSVLGPMLHDIDSAMASLSDLQNRPSGTIRITTVEHAAKTILLPAMRTFLKSHPEIDIQLTIDYGLTDVVSERFDAGVRLGGEMDKDMIAIRIGPDIPMAIVGSPDYFSRRSVPTSVSQLIDHQAINLYLPTSGTANRWRLIRGGREVRVRMEGQLLLNTIDLIIDAAIDGHGLAYLPYDQVERAIKEKKLIRVLDKFTPDLPGYHLYYPHRRHAGSAFSLFIDRLKYKGAV
soluble on expression in E. coli: not soluble

SPFDTGPELESQIRNQYGVDVHVVPVLDTLNEAETLDRVAMQAARTIGPLVDSNAIIGVAWGATLSAVSRHLTRKMTHDSIVVQLNGAGNMQTTGITYASDIMRRFGSAYGARVEQFPVPAFFDHASTKTAMWNERSVQRILDLQARMSIAIFGVGSVDSDYPSHVYAGGYLDEHDLTMLAADDVVGDVATVFFRSDGSSDGITLNERSTGPSHEQLRQVRRRICVVSGASKINGLQGALAAGLATDLILDEASARRLVSFNGHS
soluble on expression in E. coli: soluble

MESLASLYKNHIATLQERTRDALARFKLDALLIHSGELFNVFLDDHPYPFKVNPQFKAWVPVTQVPNCWLLVDGVNKPKLWFYLPVDYWHNVEPLPTSFWTEDVEVIALPKADGIGSLLPAARGNIGYIGPVPERALQLGIEASNINPKGVIDYLHYYRSFKTEYELACMREAQKMAVNGHRAAEEAFRSGMSEFDINIAYLTATGHRDTDVPYSNIVALNEHAAVLHYTKLDHQAPEEMRSFLLDAGAEYNGYAADLTRTWSAKSDNDYAQLVKDVNDEQLALIATMKAGVSYVDYHIQFHQRIAKLLRKHQIITDMSEEAMVENDLTGPFMPHGIGHPLGLQVHDVAGFMQDDSGTHLAAPAKYPYLRCTRILQPGMVLTIEPGIYFIESLLAPWREGQFSKHFNWQKIEALKPFGGIRIEDNVVIHENNVENMTRDLKLA
soluble on expression in E. coli: soluble

MNHKVHHHHHHIEGRHMKVLILGAGNIGRAIAWDLKDEFDVYIGDVNNENLEKVKEFATPLKVDASNFDKLVEVMKEFELVIGALPGFLGFKSIKAAIKSKVDMVDVSFMPENPLELRDEAEKAQVTIVFDAGFAPGLSNILMGRIFQELDLKEGYIYVGGLPKDPKPPLYYKITWSPRDLIEEYTRPARVIRNGKVSKVDPLSEVKKVKIGKFEFEAFISDGLRSMLETINSERLEEWTLRWPGHLEKIKVLRELGFFKPENLDFTLRVIEPLMRYETKDFSIMKVVGKGEEGEMEFFLYDEEDSMFSSMSRVTGFTAAIISRIVAENTCTFGVIPPEILGMREDTFRRIIDELKERGISIEGT
soluble on expression in E. coli: soluble

MSLDEPTDGTGAGTSATEMLDSLEVKGRAPKTGYKRTQFGKAWADVDHNGCDTRNDILNRDLTGVRHKWRTHNCVVKSGKLHDPYTGKDIKFKKGKKTSTAVQIDHVVALSDAWQKGAQKLSEERRTALANDPYNLMAVQGRANQKKSDGDAATWMPSNKGFRCEYVARQIGVKHKYSLWVTQAEKEAMAKVLSSCPTQTVPDYTGVKDSTAEKTTESEQTEQTQTEQSAEQAQQTQQTTQAPAPEPAPAPAPAPQPAPQQDVYYQNCTAARAAGAAPIYQGQPGYRSQLDRDHDGVACEEGHHHHHH
soluble on expression in E. coli: soluble

MARSIDYGNLMHRAMRGLIQSVLEDVAEHGLPGAHHFFITFDTTHPDVAMADWLRARYPQEMTVVIQHWYENLSADDHGFSVTLNFGNQPEPLVIPFDAVRTFVDPSVEFGLRFETHEEDEEEETGGDEDPDGDDEPPRHDAQVVSLDKFRKAAALEHHHHHH
soluble on expression in E. coli: soluble

NCSKIHLSTKLLAVDFPAHFVKSISCQICEHILADPVETSCKHLFCRICILRCLKVMGSYCPSCRYPCFPTDLESPVKSFLNILNSLMVKCPAQDCNEEVSLEKYNHHVSSHKESK
soluble on expression in E. coli: soluble

MGSDKIHHHHHHMALNLKKLPILFLSDSTTSVAISREAKAGRIRKIGPRLYTSNTSDDPAYIIRQNWLQALTLLFPGCVVSNRTALESRVSPAGRVYVTGDYARTLELHGTKFVQVKGSPPVEGDTPLLGIFMASRARALLENLTPSRERSGGELKNLPREMIERRLAELLNVEKEDSVNRLRDQARQIAPLLGLEKEFDELDDLIGTLLRTRKATLADPVAKAHQLGTPYDPHALERVETLWSVLASMPHNYRPTNAGTGTPFYTVSFFDAYFSNYIEGTRFKVDEAKEIVDSGVIPAIRPADGHDILGTYRVVSSLENMRRTPKNPDEFIELLQSRHADIMVGRPDKRPGEFKEEVNYAGATRFVDPDLVRGTLSQGFSLYKSLEHPFARALLIMFLVAEVHPFDDGNGRAARAMMNSELITAEETRIIIPSVFRNEYVASLKRMTNHLQPESFISVMSFAQEFVSRISFDSYASARVQMEGCNAFDDPADDKRLLQPSIS
soluble on expression in E. coli: not soluble

DDLPYRFGLGKADITGEAAEVGMMGYSSLEQKTAGIHMRQWARAFVIEEAASGRRLVYVNTDLGMIFQAVHLKVLARLKAKYPGVYDENNVMLAATHTHSGPGGFSHYAMYNLSVLGFQEKTFNAIVDGIVRSIERAQARLQPGRLFYGSGELRNASRNRSLLSHLKNPDIAGYEDGIDPQMSVLSFVDANGELAGAISWFPVHSTSMTNANHLISPDNKGYASYHWEHDVSRKSGFVAAFAQTNAGNLSPNLNLKPGSGPFDNEFDNTREIGLRQFAKAYEIAGQAQEEVLGELDSRFRFVDFTRLPIRPEFTDGQPRQLCTAAIGTSLAAGSTEDGPGPLGLEEGNNPFLSALGGLLTGVPPQELVQCQAEKTILADTGNKKPYPWTPTVLPIQMFRIGQLELLGAPAEFTVMAGVRIRRAVQAASEAAGIRHVVFNGYANAYASYVTTREEYAAQEYEGGSTLYGPWTQAAYQQLFVDMAVALRERLPVETSAIAPDLSCCQMNFQTGVVADDPYIGKSFGDVLQQPRESYRIGDKVTVAFVTGHPKNDLRTEKTFLEVVNIGKDGKQTPVTVATDNDWDTQYRWERVGISASKATISWSIPPGTEPGHYYIRHYGNAKNFWTQKISEIGGSTRSFEVLGTTP
soluble on expression in E. coli: soluble

MSLSKEKEVLLNEEIRADEIRCVGDDGKVYGIISSDEALEIANRLGLDLVMIAADAKPPVCKIMDYGKFRYQQEKKQKEAKKKQKVIDIKEIKLSVKIAQNDINYKVKHALEFLEQGKHVRFRVFLKGREMATPEAGVALLEKIWTMIENEANRDKEPNFEGRYVNMLVTPKKAEGHHHHHH
soluble on expression in E. coli: soluble

MKNADKNFEKEKYIDSLRDYLAVLDKVDDESLKAEICYKVSQIYHYLQKDDPQNALKYAQMSMDLHAKHGEDDLTVLDLINIASILMDSGDKKGALQKLDEAIQKAKDMGDDEIQLIAMSSKASMIAEDNREEALKLYQEVMRKSQEIGDIEDYFDAVQGIVNMVREEDEHRAFEMIMKAIEELENYISGIKSKKEKKDVADSFSYLYDTASDIAMSIGDVDQAMEIAKRLQKIVS
soluble on expression in E. coli: not soluble

MAHRNTYEAVLHKIQVGSPEDGNGAIRILQLSDLHLEKLSISPDDLYEKLRGEPIDFIALTGDFLDREASIPKLGPYLTALKKLQPAYGMYAVFGNHDYVLQGEPFERLKATLEEHGCIVLQNEMKTITVHGQTVNIIGIDDFYTRRSNMKKAYAGVKDGINIVLTHDPDIVPHMGAYHFDYLLSGHFHGGQIHWPKPYHLAKMSKTLTKRNMIKGYHEWEGKPFYINEGLGQTGVNIRVGSKPEVTLHLLSLPSVAQSETVKAVLEHHHHHH
soluble on expression in E. coli: soluble

MNIQNPVLKGFNPDPSIVRAGDDYYIATSTFEWFPGVQIHHSKDLVHWHLVAHPLSTTEFLDMKGNPDSGGIWAPDLSYADGKFWLIYTDVKVVDGMWKDCHNYLTTAEDIKGPWSKPILLNGAGFDASLFHDPSGKKYLVNMYWDQRVYHHNFYGIALQEYSVAEEKLIGKPEIIYKGTDIAYTEGPHLYYINDMYYLMTAEGGTTYQHSETIARSKTIHGPYEIQPDYPLLSAWKEVHNPLQKCGHASLVETQNGQWYLAHLTGRPLPAPAGFPSREREQHAFCPLGRETAIQKIEWQDGWPVVVGGQQGSLEVEAPDLPQQEWAPTYEERDDFDKDTLNINFQTLRIPFSEHLGSLTARPGFLRLYGRESLQSKFTQAHIARRWQSFNFDAGTSVEFSPNSFQQMAGLTCYYNTENWSSIHVTWNEEKGRIIDLVTADNGTFSMPLAGAEIPIPDEVKTVHFKVSVRGRIYQYAYSFDGETFHTLPIELPSWKLSDDYVRGGGFFTGAFVGINAIDITGTALPADFDYFTYKELD
soluble on expression in E. coli: soluble

MAAVVALSLRRRLPATTLGGACLQASRGAQTAAATAPRIKKFAIYRWDPDKAGDKPHMQTYKVDLNKCGPMVLDALIKIKNEVDSTLTFRRSCREGICGSCAMNINGGNTLACTRRIDTNLNKVSKIYPLPHMYVIKDLVPDLSNFYAQYKSIEPYLKKKDESQEGKQQYLQSIEEREKLDGLYECILCACCSTSCPSYWWNGDKYLGPAVLMQAYRWMIDSRDDFTEERLAKLQDPFSLYRCHTIMNCTRTCPKGLNPGKAIAEIKKMMATYKEKKASV
soluble on expression in E. coli: not soluble

MSLNRDQSDLHIDELLADPFGGNIEIPGSEAVKAEKEQVRLVDVLPEENKEKAIQLAGQIDHKNMQSIVLYGSQAQSKLLNFSHDMINHVQKKDVGEIGEILGELMKKLEQVNPDDLQSKKKGFLARMFGRVSSSLQEVLSKYQKTSVQIDRISLKLEHSKNALISDNKLLEQLYEKNKEYFAALNVYIAAGELKLEELKTKTIPELKQQAESSDHNQMAVQEVNDLIQFADRLDKRVHDLLLSRQITIQSAPQIRLIQNTNQALAEKIQSSIVTAIPLWKNQVAIALTLLRQRNAVDAQQKVSDTTNELLLKNAELLKTNTIETARANERGLVDIDTLKKVQESLISTLEETLTIQEEGRIKRRQAEEELMMMEGDLKQKLITIKEREGHHHHHH
soluble on expression in E. coli: soluble

MSLTEAAKLTFKVTNPNEKVKVRLTFSQSGEQKEVAIDAAGNGNIEITGFTPQYVTMQYTRGRRTLYLDPNQDLTLSFDSDNMWRNTTFEGAGAAINTYLGSKELQSLGMPDMKMQEAALIHKGDSLYAANCQVLEAAKLPADFTAQEKIRLQFYTYYYFSKYALYHPHFGKDDNYIPSKAYYEKLEAITPINAGLLALKEYKAFLPDAISAFSNKGKTVASNSTEQSVNYVDATIQDEKVAEFLIDQFVYNFVDNNGLDEADGLIVLFRKHVKDAKSIEKFNALCTKWEKLRSGNPSAASFSYPDINGKTVSLADLKGKYIYIDVWATWCGPCRGELPALKELEEKYAGKDIHFVSLSCDKNKKAWENMVTKDQLKGIQLHMGTDRTFMDAYLINGIPRFILLDRDGKIISANMTRPSDPKTAEKFNELLGLEGHHHHHH
soluble on expression in E. coli: soluble

MSQAELFTISDLAREFDVTLRTIRFYEEQGLIEPQRDGRQRLFTRRDRGRLKLILRGKRIGLSLAEIREIIDMYQLARDEASQSQKLLDLLLARRRQLEAQRRDIDAVLDEIATLENHCRDVIDSQSSVA
soluble on expression in E. coli: not soluble

MSLSQRTDCSLARRSSTVRKQDSSQAIPLVVESCIRFISRHGLQHEGIFRVSGSQVEVNDIKNAFERGEDPLAGDQNDHDMDSIAGVLKLYFRGLEHPLFPKDIFHDLMACVTMDNLQERALHIRKVLLVLPKTTLIIMRYLFAFLNHLSQFSEENMMDPYNLAICFGPSLMSVPEGHDQVSCQAHVNELIKTIIIQHENIFPSPREEGHHHHHH
soluble on expression in E. coli: soluble

HTERVGWLSGRIAEEMGMSEVFVTEIQFAAPLHDIGKIGIPDRILLKPGILTPEEFEIMKQHTTIGFRILSRSNSPILQLGAEIALTHHERWDGSGYPRGLKEREIPISGLIVAVADSFDA
soluble on expression in E. coli: not soluble

MGSDKIHHHHHHMSVLCLDLGGTKLMLAQVEGKTLLDTWRYPVPADGNFEQLFDFLVTCIHSHLTPETYGISIGIPGMVDMQSGTLLEVLNIPALTATQLAQQLKNTFEMDVVVNNDANLFALGEAVLNSNQDMLGITLGTGVGAGVIFNGQLYSGKHCAAGEIGSLSYRDGIIEHYCSGQYFTTHHHMSGEHLYQKACEGDSQALQAFAHFGEHLAHMIAQTLLVYDPKDIVLGGSVSQSFPFFIEALKQKLQSLVYGPQLADLTISASQHHNAALIGAAQWFLQQQKSSDFN
soluble on expression in E. coli: not soluble
